The source of these data is the supplement of paper PMC9170038.

This data set has as its system MS2 coat protein. Kind of data set: apparent KD of MS2 coat protein; designed switch direction (-1 OFF switch, 1 ON switch): -1; higher = weaker reporter binding. Summed up:
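Designed RNA switches sharing common flanks were transcribed on Illumina chips by stalled E. coli RNA polymerase. They were titrated with SNAP-549-labelled MS2 coat protein, from 0.7 or 1.5 nM doubling to 3 µM, in Tris-HCl pH 7.5 buffer with KCl, MgCl2, BSA, DTT, tRNA and Tween-20. Titrations ran without input, with 200 uM small-molecule ligand, or with an oligonucleotide input. The apparent KD of each design is the median over its clusters, after curve-fitting of normalised cluster fluorescence.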

The mark [1] stands for this setting: Eterna round: R95, input ligand: microRNA oligo, concentration not stated.
Where [2] appears, read: input ligand: microRNA oligo, concentration not stated.
Where [3] appears, read: Eterna round: R95, input ligand: FMN 200 uM.
[4] abbreviates: Eterna round: R95, input ligand: none.

With “GGAUCGAGAGUGAGGAUAUGCUGGUCCUUGGAUCAGCAGAAGGCACAUGAGGAUCACCCAUGUGAUUUCGAUCC [Mat - Exclusion 4 - Eli Mod - D40] (Eterna round: R97, puzzle: Brourd's mod of Exclusion 4)”, the “apparent KD of MS2 coat protein” value was found to be 34.6 nM (input ligand: FMN 200 uM) and 18.1 nM (input ligand: none).
Regarding “GGAUCGAGUGUGAGGAUAUACCACUGGAUACAGUGGUAGAAGGCACAUGAGGAUCACCCAUGUCCUUACGAUCC [Fiskers BMX 4 - 46] (puzzle: Brourd's mod of Exclusion 4)”, the “apparent KD of MS2 coat protein” value under setting [1] came to 66 nM.
Still for that read-out and setting: next, “GGAUCGAGUGUGAGGAUAUGCAGGUCCUUGGAUCUGCAGAAGGCACAUGAGGAUCACCCAUGUGGAAACGGUCC [Mat - Exclusion 4 - JL Mod - D76] (puzzle: Brourd's mod of Exclusion 4)”: 58.9 nM.
For the sequence “GGAUGCUGAGUAAGGAUAUGGUAGGCUUGCGCAAACCAGAAGGUACAUGAGGAUCACCCAUGUAAGCAUCCAGU [eternacac ex4r4 #4] (Eterna round: R97, puzzle: Brourd's mod of Exclusion 4)”, the “apparent KD of MS2 coat protein” value came to 16.3 nM (input ligand: FMN 200 uM) and 14.5 nM (input ligand: none).
For “GGAUGCUGAGUAAGGAUAUGGUAGGCUUGCGCCUACCAGAAGGUACAUGAGGAUCACCCAUGUUAGCAUCCAGU [eternacac ex4r4 #3] (Eterna round: R97, puzzle: Brourd's mod of Exclusion 4)” the same measures were 19.6 nM and 16.2 nM.
As for “GGAUUCUCGCAAGGAUAUCGCUUACAUCCUAAGCGAGAAGGUGCUACCAACUUGAGGAUCACCCAAGUGACUUGGGCCUAAAUA [Mutated MS2 EX1.27] (Eterna round: R96, puzzle: Exclusion NG 1)”, the “apparent KD of MS2 coat protein” value reads like this: (input ligand: FMN 200 uM) 112 nM; under setting [2], 34.2 nM; (input ligand: none) 62.9 nM.
On to “GGCAAAUUUGUAAGGAUAUUGAGCAGCGAAGAGCUCGAGAAGGUACAUGAGGAUCACCCAUGUUUCUCAGACGC [Eternabot (Original) Solution 49] (Eterna round: R97, puzzle: Brourd's mod of Exclusion 4)”, for which the “apparent KD of MS2 coat protein” value came to 43.4 nM (input ligand: FMN 200 uM) and 17.7 nM (input ligand: none).
In the case of “GGCAAUAACGAGGAUAUCCUAUGGGAAACCAUAGGAGAAGGUGUAACAUGAGGAUCACCCAUGUUCCUCAAGCC [Mat - Exclusion 6 - Eli Mod - D67] (puzzle: Exclusion 6)”, the “apparent KD of MS2 coat protein” value is, setting by setting: under setting [3], 43.3 nM; under setting [1], 34.7 nM; under setting [4], 39.8 nM.
On to “GGCAAUAACGAGGAUAUCGUAUCGGAAACGAUACGAGAAGGUGUAACAUGAGGAUCACCCAUGUUCCUUAAGCC [Fiskers Ex 6 - 9] (puzzle: Exclusion 6)”, for which, under setting [1], the “apparent KD of MS2 coat protein” value stood at 23.5 nM.
As to “GGCACACAUGAGGAUCACCCAUGUGAGGAUAUGCUGCGAUCGUCGAUAGACGAUAGCAGUAGAAGGCACAUGCC [Mat - Exclusion 1 - Eli Mod - D7] (Eterna round: R97, puzzle: Exclusion 1)”, the “apparent KD of MS2 coat protein” value runs as follows: (input ligand: FMN 200 uM) 25.9 nM; (input ligand: none) 19.1 nM.
For “GGCAGACAUGAGGAUCACCCAUGUGAGGAUAUGGUGCGAUCGUCGAUAGACGAUAGCACCAGAAGGCACAUGCC [Mat - Exclusion 1 - Eli Mod - D4] (Eterna round: R97, puzzle: Exclusion 1)” the same measures were 159 nM and 34.5 nM.
For “GGCAUCGGAGGAUAUAUUUAUGGUGAUACCCGAAGCUUUCUACUUGAGGAUCACCCAAGUAGAAGGCCGAUGCC [jl-ex2.4.82 ViennaUCT mod] (Eterna round: R97, puzzle: Exclusion 2)” the same measures were 17.4 nM and 10.9 nM.
For the sequence “GGCAUGCAAGGAUAUACUUGCAGUGAUAUUCGAUAAAGUCUACUUGAGGAUCACCCAAGUAGAAGGUGCAUGCC [Exclusion 2 (Mod6 JL EX2 4.74 Vienna UCT mod of Mamaed)] (Eterna round: R97, puzzle: Exclusion 2)”, the “apparent KD of MS2 coat protein” value was found to be 35 nM (input ligand: FMN 200 uM) and 25.8 nM (input ligand: none).
For “GGCAUGUAAGGAUAUGCCACUGAGUGCUUUGCGCUCAGUAAGCAGAAGGUACAUGAGGAUCACCCAUGUGAUAA [jl-ex4-4.54 ViennaUCT mod] (Eterna round: R97, puzzle: Exclusion 4)” the same measures were 136 nM and 653 nM.
For “GGCGGACAUGAGGAUCACCCAUGUAAGGAUAUUAGGCGAUCGUCGAUAGACGAUAGCCUGAGAAGGUACGCGCC [Mat - Exclusion 1 - Eli Mod - D14] (Eterna round: R97, puzzle: Exclusion 1)” the same measures were 18.6 nM and 17.1 nM.
For “GGCGGACAUGAGGAUCACCCAUGUCAGGAUAUUAGGCGAUCGUCGAAAGACGAUAGCCUGAGAAGGGACGCGCC [Eli x1 4.13] (Eterna round: R97, puzzle: Exclusion 1)” the same measures were 20.6 nM and 17.7 nM.
As to “GGCUGCAAUGUAGGAUAUCUGCACGUUUAGUGCAGAGAAGGACAUGAGGAUCACCCAUGUAUAGUAGCUUCGGCUACAGCAGCC [ENG1-D2] (Eterna round: R96, puzzle: Exclusion NG 1)”, the “apparent KD of MS2 coat protein” value (input ligand: FMN 200 uM) came to 18.4 nM, the “apparent KD of MS2 coat protein” value under setting [2] is 11.4 nM and the “apparent KD of MS2 coat protein” value (input ligand: none) amounted to 17.2 nM.
With “GGGAAGGGAGGAUAUGAGGAGGAGAACAUGAGGAUCACCCAUGUGAGGCCUCAGGAUCAAUCAGAAGGCCCGAUCC [AK-MS2ROC-r4-exclusion5-15.1] (Eterna round: R97, puzzle: Exclusion 5)”, the “apparent KD of MS2 coat protein” value (input ligand: FMN 200 uM) turned out to be 78.1 nM and the “apparent KD of MS2 coat protein” value (input ligand: none) turned out to be 26 nM.
With “GGGCAGUCAGGAUAUACAUGAGGAUCACCCAUGUUGAGAUGUGAAAGGGCGGGAGUAGGUAGAAGGGACGAGAG [JR_Exclu3_Sub041] (puzzle: Exclusion 3)”, the “apparent KD of MS2 coat protein” value stood at 27.4 nM under setting [3], 22.8 nM under setting [1] and 29.9 nM under setting [4].
On to “GGGCGCUUAGGAUAUACAUGAGGAUCACCCAUGUGGCUCUCCACGUUGCAUAACAUUCGUAGAAGGAAGCGCAU [Eternabot (L1) Solution 69] (Eterna round: R97, puzzle: Exclusion 3)”, for which the “apparent KD of MS2 coat protein” value came to 252 nM (input ligand: FMN 200 uM) and 35.8 nM (input ligand: none).
For “GGGUAGUGAGGAUAUCGUUGUUAGGAGGAGUAGGUAGGAGGCGAGAAGGCACAUGAGGAUCACCCAUGUAUGGA [JR_Exclu4_Sub067] (puzzle: Exclusion 4)”, under setting [1], the “apparent KD of MS2 coat protein” value is 30.7 nM.
With “GGGUGACAUGAGGAUCACCCAUGUCAGGAUAUGAUACUAUGUACUUCGGUACAUAGUAUCAGAAGGGACAUCAU [Ex1-3: 14] (Eterna round: R96, puzzle: Exclusion 1)”, the “apparent KD of MS2 coat protein” value is, setting by setting: (input ligand: FMN 200 uM) 112 nM; under setting [2], 253 nM; (input ligand: none) 424 nM.
On to “GGGUGACAUGAGGAUCACCCAUGUCAGGAUAUGAUACUAUGUACUUCGGUACAUAGUAUCAGAAGGGACAUCAU [Ex1-3: 14] (puzzle: Exclusion 1)”, for which the “apparent KD of MS2 coat protein” value under setting [1] was determined as 216 nM.
